How the values were obtained:
[1] = target: T1, MMP-1 secreted from a human Synovial membrane cell (Homo sapiens, UniProt P03956); experiment: Culture analysis of enzymatic digestion in IL-1β stimulated human FLS; type: cell-based; conditions: 1 uM peptide, 3 and 6 hours, IL-1β 0.1 ng/ml
T1 construct: MFK24 peptide cleaved by MMP-1 secreted from a human Synovial membrane cell; endogenous in cells; host or cells: human fibroblast-like synoviocytes (human synovial membrane cell line) stimulated with 0.1 ng/ml IL-1β
T1 sequence (P03956 100-469): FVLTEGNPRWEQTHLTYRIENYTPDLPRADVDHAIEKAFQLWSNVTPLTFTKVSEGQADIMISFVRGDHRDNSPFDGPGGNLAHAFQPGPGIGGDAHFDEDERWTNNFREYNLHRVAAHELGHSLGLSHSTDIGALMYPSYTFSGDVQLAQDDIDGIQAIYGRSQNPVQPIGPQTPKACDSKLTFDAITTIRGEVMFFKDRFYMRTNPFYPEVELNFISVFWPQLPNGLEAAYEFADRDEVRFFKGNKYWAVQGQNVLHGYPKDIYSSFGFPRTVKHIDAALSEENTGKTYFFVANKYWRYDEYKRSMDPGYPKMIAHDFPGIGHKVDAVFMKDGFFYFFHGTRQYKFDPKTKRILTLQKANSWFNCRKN
Description: In order to determine if MFK24 is well adhered to cells and in actuality cleaved by MMP-1, human FLS (fibroblast-like synovicyte) was treated with IL-1β so as to amplify the expression of MMP-1. Then, MFK24 was added in a culture medium and cultured.
In a culture medium of DMEM+10% FBS (fetal bovine serum)+2% penicillin, streptomycin, a human Synovial membrane cell line was cultured for 2 days, added with 0.1 ng/ml IL-1β, and stimulated for 24 hours. The cell line was treated with mdhFas-1-MMPsubstrate-RGD structural peptide (1 uM), and stimulated for 3 hours and 6 hours. Then, by using an anti-βig-h3 antibody recognizing mdhfas-1, and an anti-histidine antibody recognizing C-terminal histidine-tag, the amount of peptide was determined.

[2] = test system: TNF-a, RANKL, IL-1β, CCL-2, MMP-1, MMP-3, IL-6, VCAM-1; experiment: Semiquantitative reverse transcription PCR of inflammatory mediators in CIA mouse foot tissue; type: in vivo; conditions: CIA mouse articulation tissue, FIG. 21
Description: The distribution of inflammation in the foot tissue may be somewhat differently observed according to the regions, and its quantitative research is difficult. Thus, in the hind leg of a mouse CIA model treated with MFK24, the change in inflammatory mediators according to the onset of arthritis was measured by a semiquantitative reverse transcription PCR method using a Taqman probe, as described below.
From a mouse CIA model, a foot tissue was separated, and its skin was removed. The remaining tissue was grinded by a tissue homogenizer, and an extraction reagent (Easy-spim™, Intron) was used to extract all RNAs. They were quantified, and for 7 μg of RNA, a reverse transcriptase reaction was carried out by using AMV reverse transcriptase (Roche, 0.5 ul), oligo dT (Roche, 1 ul), and 10 mM dNTP (Takara, 2 ul) RNase inhibitor (Roche, 0.1 ul). For TNF-a, RANKL, IL-1β, CCL-2, MMP-1, MMP-3, IL-6, VCAM-1 and 18S RNA of a mouse, semiquantitative PCR was performed by using primers (Bioneer, Daejeon) and a Taqman probe (Roche, Germany) in LC480 (Roche, Germany), so as to determine the number of transcripts. Quantitative analysis of the transcripts was performed through comparison with 18S RNA transcripts. The primer pairs for the semiquantitative PCR are noted in [table8].

B1: MFK24: fusion peptide having sequential links of mdhFas-1, MMP1 substrate GPQGIAG (SEQ ID NO: 6), and QERGDSLA (SEQ ID NO: 10) (protein)
chain: QAMPPEELNKLLANAKELTNILKYHIGDEILVSGGIGALVRLKSLQGDKLEVSSKNNVVSVNKEPVAETDIMEFGPQGIAGVDGQERGDSLAGLE
modifications: MFK24
[1]
  cleavage in FLS culture (anti-histidine vs anti-βig-h3): cleaved by MMP-1 secreted from a Synovial membrane cell
[2]
  number of transcripts of inflammatory mediators compared to arthritis control group: significantly reduced

Source: patent US9605038B2, “Fusion peptide comprising dhFas-1 domain and MMP substrate and use thereof for preventing and treating rheumatoid arthritis” (Kyungpook National University Industry-Academic Cooperation …, priority 2010, dated 2017)
